{
  "source": "paper PMC8629852",
  "about": "(Archives of biochemistry and biophysics, 2021)",
  "molecules": {"B1": {"name": "Human adrenodoxin (Adx), unlabeled (natural protein, UniProt P10109 61-184, looked up)", "chain": "SSSEDKITVHFINRDGETLTTKGKVGDSLLDVVVENNLDIDGFGACEGTLACSTCHLIFEDHIYEKLDAITDEENDMLDLAYGLTDRSRLGCQICLTKSMDNMTVRVPETVADARQSIDVGKTS"}},
  "key": {"adrenodoxin": {"target": "adrenodoxin (UniProt P00257)", "settings": "cited from earlier work"}, "[1]": {"target": "adrenodoxin (Homo sapiens) (UniProt P10109)", "test": "microscale thermophoresis", "settings": "cited from earlier work"}, "cross-linking": {"target": "the molecule itself", "test": "cross-linking"}},
  "data": [
    {"molecule": "AdR (from UniProt P08165)", "values": [
      {"measurement": "Kd", "setting": "adrenodoxin", "value": 70, "unit": "nM"}
    ]},
    {"molecule": "P450 27C1 (from UniProt Q4G0S4)", "values": [
      {"measurement": "Kd", "setting": "[1]", "value": 220, "unit": "nM"}
    ]},
    {"molecule": "B1", "values": [
      {"measurement": "stoichiometry N", "setting": "cross-linking", "value": 2}
    ]}
  ]
}
